Assay results: patent publication US20260265396A1

How the values were obtained:
[1] = target: truncated hTfR1 of SEQ ID NO:89 (human) (UniProt P02786); assay: SPR, hTfR1 on CM5, bispecific molecule with scFv module injected
[2] = target: His10-mTfR1 (SEQ ID NO:53) (mouse) (UniProt Q62351); assay: indirect ELISA, His10-mTfR1 captured on Ni-coated plate, hybridoma supernatant
Sequence of His10-mTfR1 (SEQ ID NO:53) (mouse) (Q62351 other isoform, or with tags, fused parts or gaps limits assumed): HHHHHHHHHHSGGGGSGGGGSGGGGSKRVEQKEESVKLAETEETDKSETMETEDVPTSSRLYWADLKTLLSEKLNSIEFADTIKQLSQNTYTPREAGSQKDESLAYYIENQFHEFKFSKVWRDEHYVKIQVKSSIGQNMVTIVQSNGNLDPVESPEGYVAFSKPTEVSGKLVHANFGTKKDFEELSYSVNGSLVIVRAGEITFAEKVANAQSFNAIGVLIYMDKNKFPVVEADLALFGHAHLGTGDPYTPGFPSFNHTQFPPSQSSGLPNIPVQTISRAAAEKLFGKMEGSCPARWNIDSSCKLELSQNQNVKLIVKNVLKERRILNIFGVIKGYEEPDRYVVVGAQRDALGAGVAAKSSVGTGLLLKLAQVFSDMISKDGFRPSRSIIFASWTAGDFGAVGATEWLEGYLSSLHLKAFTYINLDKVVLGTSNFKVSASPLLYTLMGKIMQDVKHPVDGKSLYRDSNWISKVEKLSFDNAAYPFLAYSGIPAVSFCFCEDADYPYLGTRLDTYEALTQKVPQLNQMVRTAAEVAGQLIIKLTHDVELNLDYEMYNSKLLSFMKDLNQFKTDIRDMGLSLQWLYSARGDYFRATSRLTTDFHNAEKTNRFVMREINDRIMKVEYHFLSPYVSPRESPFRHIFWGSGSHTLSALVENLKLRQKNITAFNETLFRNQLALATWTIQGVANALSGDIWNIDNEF

Sequence of truncated hTfR1 of SEQ ID NO:89 (human) (P02786 other isoform, or with tags, fused parts or gaps limits assumed): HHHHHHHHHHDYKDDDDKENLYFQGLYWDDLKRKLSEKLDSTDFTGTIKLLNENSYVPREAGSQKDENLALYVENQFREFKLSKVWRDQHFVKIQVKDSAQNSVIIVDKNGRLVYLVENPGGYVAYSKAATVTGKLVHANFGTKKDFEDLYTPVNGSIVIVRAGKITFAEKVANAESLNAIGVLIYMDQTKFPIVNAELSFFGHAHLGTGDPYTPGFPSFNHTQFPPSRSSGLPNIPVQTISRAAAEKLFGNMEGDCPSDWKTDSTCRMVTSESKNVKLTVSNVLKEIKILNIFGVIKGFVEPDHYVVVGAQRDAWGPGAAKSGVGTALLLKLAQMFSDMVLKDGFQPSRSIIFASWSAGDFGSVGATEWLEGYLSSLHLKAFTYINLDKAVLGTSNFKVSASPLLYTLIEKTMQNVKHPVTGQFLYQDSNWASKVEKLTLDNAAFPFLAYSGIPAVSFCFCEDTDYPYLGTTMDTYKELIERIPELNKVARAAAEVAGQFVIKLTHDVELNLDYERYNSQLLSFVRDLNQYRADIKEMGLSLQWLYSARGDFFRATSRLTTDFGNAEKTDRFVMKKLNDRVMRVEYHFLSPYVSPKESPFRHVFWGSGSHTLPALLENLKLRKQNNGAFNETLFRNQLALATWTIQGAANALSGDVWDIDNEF

B1: bispecific binding molecule (format of WO2022/258841) with h26D3 scFv module (bispecific antibody, part only; not given: Cargo antibody chains, linkers, domain order, V domains shown, not shown: another chain or arm of the molecule; large carriers; small tags and cut ends)
VH: EVQLVQSGAEVKKPGSSVKVSCKASGYIFTDYNMDWVRQAPGQGLEWIGDINPDYDTTSYNEKFKGRATLTVDKSTSTAYMELSSLRSEDTAVYYCARGGYSGSSYYHPMDYWGQGTLVTVSS
VL: DIQMTQSPSSVSASVGDRVTITCKSSQSLLYSTNQKNYLAWYQQKPGKAPKLLIYWASTRESGVPSRFSGSGSGTDFTLTISSLQPEDFATYYCQQYFIYPRTFGQGTKVEIK
- Kd [1]: 10 nM

B2: bispecific binding molecule (format of WO2022/258841) with h26D3 LC1 scFv module (bispecific antibody, part only; not given: Cargo antibody chains, linkers, domain order, V domains shown, not shown: another chain or arm of the molecule; large carriers; small tags and cut ends)
VH: EVQLVQSGAEVKKPGSSVKVSCKASGYIFTDYNMDWVRQAPGQGLEWIGDINPDYDTTSYNEKFKGRATLTVDKSTSTAYMELSSLRSEDTAVYYCARGGYSGSSYYHPMDYWGQGTLVTVSS
VL: DIQMTQSPSSVSASVGDRVTITCKSSQSLLASTNQKNYLAWYQQKPGKAPKLLIYWASTRESGVPSRFSGSGSGTDFTLTISSLQPEDFATYYCQQYFIYPRTFGQGTKVEIK
- Kd [1]: 40 nM

B3: bispecific binding molecule (format of WO2022/258841) with h26D3 HC6 scFv module (bispecific antibody, part only; not given: Cargo antibody chains, linkers, domain order, V domains shown, not shown: another chain or arm of the molecule; large carriers; small tags and cut ends)
VH: EVQLVQSGAEVKKPGSSVKVSCKASGYIFTDYNMDWVRQAPGQGLEWIGDINPDADTTSYNEKFKGRATLTVDKSTSTAYMELSSLRSEDTAVYYCARGGYSGSSYYHPMDYWGQGTLVTVSS
VL: DIQMTQSPSSVSASVGDRVTITCKSSQSLLYSTNQKNYLAWYQQKPGKAPKLLIYWASTRESGVPSRFSGSGSGTDFTLTISSLQPEDFATYYCQQYFIYPRTFGQGTKVEIK
- Kd [1]: 100 to 200 nM

B4: bispecific binding molecule (format of WO2022/258841) with h26D3 LC5 scFv module (bispecific antibody, part only; not given: cargo antibody chains, linkers, format, V domains shown, not shown: another chain or arm of the molecule; large carriers; small tags and cut ends)
VH: EVQLVQSGAEVKKPGSSVKVSCKASGYIFTDYNMDWVRQAPGQGLEWIGDINPDYDTTSYNEKFKGRATLTVDKSTSTAYMELSSLRSEDTAVYYCARGGYSGSSYYHPMDYWGQGTLVTVSS
VL: DIQMTQSPSSVSASVGDRVTITCKSSQSLLYSTNQKNYLAWYQQKPGKAPKLLIYWASTRESGVPSRFSGSGSGTDFTLTISSLQPEDFATYYCQQAFIYPRTFGQGTKVEIK
- Kd [1]: 400 to 500 nM

B5: mouse monoclonal antibody 26D3 (antibody, mouse IgG2a, V domains shown)
VH: EVQLQQFGVELVKPGASVKISCKASGYIFTDYNMDWVKQSHGKSLEWIGDINPDYDTTSYNEKFKGKATLTVDKSSSTAYMELRSLTSEDTAVYYCARGGYSGSSYYHPMDYWGQGTSVTVSS
VL: DIVMSQSPSSLAVSVGEKITMSCKSSQSLLYSTNQKNYLAWYQQKPGQSPELLIYWASTRESGVPDRFTGSGSGTDFTLTISNVRAEDLAVYYCQQYFIYPRTFGGGTKLEIK
- OD450 (indirect ELISA) [2]: > 0.2 OD
